Biological target: Nucleolin 284-710 (UniProt P19338 284-710)
Test: EMSA; 100 mM KCl; EMSA: oligo folded in binding buffer (composition not given) + 100 mM KCl, 37 C 1 h; nucleolin 100 ng, 4 C 2 h, 8% native gel + 100 mM KCl at 4 C; BG4 37 C 30 min, 6% native gel + 100 mM KCl at RT; CD: 1x PBS + 100 mM KCl
Conditions: protein: recombinant, tags: His, label: 5'-32P (EMSA)

Chain of Nucleolin 284-710 (P19338 284-710): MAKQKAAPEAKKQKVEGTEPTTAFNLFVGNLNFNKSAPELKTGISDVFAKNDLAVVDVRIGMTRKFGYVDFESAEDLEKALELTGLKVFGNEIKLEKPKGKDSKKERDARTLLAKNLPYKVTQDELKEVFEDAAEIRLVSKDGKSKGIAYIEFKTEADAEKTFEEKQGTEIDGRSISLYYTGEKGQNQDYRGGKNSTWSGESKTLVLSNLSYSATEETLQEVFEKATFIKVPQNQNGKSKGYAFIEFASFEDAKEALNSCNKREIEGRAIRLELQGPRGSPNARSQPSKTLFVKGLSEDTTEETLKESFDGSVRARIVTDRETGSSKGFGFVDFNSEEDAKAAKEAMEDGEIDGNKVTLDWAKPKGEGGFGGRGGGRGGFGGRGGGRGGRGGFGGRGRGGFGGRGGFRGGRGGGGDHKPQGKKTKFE

Row | Binder | binding result (intramolecular parallel G4, two G stretches plus GNG motifs) | binding result (single strand)
1 | GGAGGTTTCCGGGGGCGCGGGGCGGAGC (structured_DNA) [KD52 (SHOX G-rich strand)] | binds | 
2 | GCTCCGCCCCGCGCCCCCGGAAACCTCC (ssDNA) [KD53 (C-rich reverse complement of KD52)] |  | no binding

— PMC4945072, “GNG Motifs Can Replace a GGG Stretch during G-Quadruplex Formation in a Context Dependent Manner”
